Measurements published in patent publication US11680267B2, “Co-regulatory sequences based on tetracycline and Cumate” (Shenzhen Eureka Biotechnology Co., Ltd., priority 2020, dated 2023).

System: 293T(T&C)-TRE3GCuO-Luc cells and 293T(T&C)-TRE3GCuO-BGI-Luc cells
Experiment: Luciferase assay in stable cell lines under different combinations of DOX and Cumate (Example 5)
Assay type: cell-based
Details: for induced transcription activity: 24 hours, stable cell line
Source text: In this Example, stable cell lines, under complex regulation of Tet-ON and Cumate, TRE3GCuO or TRE3GCuO-intron, and with Luciferase as the reporter gene, were constructed. Then, based on these cell lines, induced transcription activities of the reporter gene under the following 4 induction conditions were detected: without inducer, Cumate only, DOX only or both DOX and Cumate inducers. In this Example, the Luciferase reporter gene was taken as an example, and in principle, the method of the present disclosure was not affected by the nucleic acid fragment of interest. The specific experimental methods were as follows:
293T cells were seeded at 1.5E+06 cells per 60 mm culture dish, and cultured in DMEM (Sigam, D6429) complete medium supplemented with 10% FBS (ExCell, 11H116) at 37° C. and 5% CO 2. After 24 hours of culture, transfection was carried out according to the PEI method. During transfection, 500 μL of transfection reagent which contained 5.5 ug of total plasmid was added to each 60 mm culture dish, and the mass ratio of total plasmid to PEI MAX (Polysciences, 24765-1) was 1:4; and thereby 3 Luciferase stable cell lines were constructed. The transfection plasmids were transfected at the 19BF075:19BF229:18BF019 molar ratio of 5:5:1 to obtain 293T(T&C)-CMV-BGI-Luc cells; the transfection plasmids were transfected at the 19BF075:19BF235:18BF019 molar ratio of 5:5:1 to obtain 293T(T&C)-TRE3GCuO-Luc cells; the transfection plasmids were transfected at the 19BF075:19BF237:18BF019 molar ratio of 5:5:1 to obtain 293T(T&C)-TRE3GCuO-BGI-Luc cells. The plasmid and PEI MAX were mixed uniformly, and then put into a culture dish after standing for 15 minutes. 3 hours after transfection, the medium was changed to a complete DMEM medium, and the transfection operation was completed. After 24 hours of transfection, the cells were digested with trypsin and all seeded in a 100 mm culture dish (Corning, 430167), and 200 μg/ml of hygromycin (Sangon Biotech A600230-0001) drug screening was performed for at least three passages. After the growth of cells under the pressure of drug screening was consistent with that of the original 293T cells, the above 3 cells were diluted to 1 cell per well by a limiting dilution method and seeded in a 96-well plate; when the cells grew to about 50% of the bottom area of the well, the wells with strong EGFP green fluorescence intensity and uniform luminescence were selected under the fluorescence microscope, and 3 independent clones of each cell were selected for the following experiments.
For the above 3 cells, 3 independent clones for each cell were seeded into a 96-well plate (Corning 3916) at 2.5E+04 cells per well, with 8 wells per clone, and the medium was 100 microliters of DMEM complete medium. After 24 hours of culture, the medium was replaced and the following reagents were added into the duplicate wells of the 8 wells for each cell: (1) the same amount of medium, (2) Cumate at a final concentration of 200 ug/ml, (3) DOX at a final concentration of 1 ug/ml, or (4) DOX at a final concentration of 1 ug/ml and Cumate at a final concentration of 200 ug/ml. After 24 hours of further culture, relative light unit RLU of each well was detected using a Steady-Glo® Luciferase Assay System (Promega, E2610) kit according to the instruction (Promega, FB037), wherein the detection instrument was a fluorescence microplate reader (Perkin Elmer Victor V).

B1: TRE3GCuO: Tet-On (7xTetO of TRE3G) and Cumate complex response element, CuO 50 bp behind the TATA box (SEQ ID NO: 23) (nucleic acid)
DNA: TCCCTATCAGTGATAGAGAACGTATGAAGAGTTTACTCCCTATCAGTGATAGAGAACGTATGCAGACTTTACTCCCTATCAGTGATAGAGAACGTATAAGGAGTTTACTCCCTATCAGTGATAGAGAACGTATGACCAGTTTACTCCCTATCAGTGATAGAGAACGTATCTACAGTTTACTCCCTATCAGTGATAGAGAACGTATATCCAGTTTACTCCCTATCAGTGATAGAGAACGTATTAGGCGTGTACGGTGGGCGCCTATAAAAGCAGAGCTCGTTTAGTGAACCGTCAGATCGCCTGGAGCAATTCCACATACAAACAGACCAGATTGTCTGTTTGTT
modifications: TRE3GCuO50 response element sequence
- induced transcription activity (adding both DOX 1 ug/ml and Cumate 200 ug/ml): 7.54E+06 RLU
- induced transcription activity relative to no induction (adding both DOX and Cumate): 2381.05 times
- induced transcription activity relative to only adding Cumate (adding both DOX and Cumate): 552.99 times
- induced transcription activity relative to only adding DOX (adding both DOX and Cumate): 35.19 times
- maximum induced transcription activity as % of that of CMV promoter (both DOX and Cumate inducers added): 47.84%
- induced transcription activity relative to no induction (only adding Cumate): 4.31 times
- induced transcription activity (only adding Cumate 200 ug/ml): 1.36E+04 RLU
- induced transcription activity relative to no induction (only adding DOX): 67.66 times
- induced transcription activity relative to only adding Cumate (only adding DOX): 15.71 times
- induced transcription activity (only adding DOX 1 ug/ml): 2.14E+05 RLU
